{
  "source": "paper PMC2777425",
  "binders": {"B1": {"name": "17-mer ss (ssDNA)", "DNA": "TCTTCTGTGCACTCTTC"}},
  "molecular_target": "T1, K752G844 (winged-helix domain) (UniProt Q54324 752-844)",
  "T1 sequence": "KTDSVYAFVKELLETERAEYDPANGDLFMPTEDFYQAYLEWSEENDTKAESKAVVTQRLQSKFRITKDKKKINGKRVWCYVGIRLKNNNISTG",
  "test": "fluorescence anisotropy",
  "data": [
    {"binder": "B1", "values": [
      {"measurement": "apparent K (half saturation)", "result": 1600, "unit": "nM"}
    ]}
  ]
}
